From PMC4534181 come the findings set out here.

The assay concerns the target wild-type α1-antitrypsin (recombinant) (human) (UniProt P01009). The experiment in a line: native MS; 15 μM α1-antitrypsin incubated with TTAI at peptide:protein molar ratios 0.1:1 to 5:1 for 3 days at 37.5°C in phosphate buffer pH 7.4; exchanged into 200 mM ammonium acetate pH 8; nanoelectrospray, Synapt.
Sequence of UniProt P01009 (P01009 25-418): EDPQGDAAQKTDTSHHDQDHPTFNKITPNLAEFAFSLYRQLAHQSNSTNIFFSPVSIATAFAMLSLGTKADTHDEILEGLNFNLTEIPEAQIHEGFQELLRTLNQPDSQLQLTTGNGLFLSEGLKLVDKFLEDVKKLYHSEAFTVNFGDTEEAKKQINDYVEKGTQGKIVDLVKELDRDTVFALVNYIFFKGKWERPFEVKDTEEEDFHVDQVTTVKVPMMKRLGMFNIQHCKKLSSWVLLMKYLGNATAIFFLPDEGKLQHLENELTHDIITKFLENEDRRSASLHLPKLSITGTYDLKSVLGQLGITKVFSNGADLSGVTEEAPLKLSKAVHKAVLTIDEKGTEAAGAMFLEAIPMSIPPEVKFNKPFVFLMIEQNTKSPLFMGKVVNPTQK

B1: reactive loop analogue tetrapeptide Thr-Thr-Ala-Ile (TTAI) (peptide)
peptide: Ac-TTAI-NH2
As for B1, the stoichiometry N came out at 2 copies.
